Positions count from the first letter of the chain named.
B1: RV29 (bispecific antibody, human IgG1, kappa, L234A L235A)
heavy: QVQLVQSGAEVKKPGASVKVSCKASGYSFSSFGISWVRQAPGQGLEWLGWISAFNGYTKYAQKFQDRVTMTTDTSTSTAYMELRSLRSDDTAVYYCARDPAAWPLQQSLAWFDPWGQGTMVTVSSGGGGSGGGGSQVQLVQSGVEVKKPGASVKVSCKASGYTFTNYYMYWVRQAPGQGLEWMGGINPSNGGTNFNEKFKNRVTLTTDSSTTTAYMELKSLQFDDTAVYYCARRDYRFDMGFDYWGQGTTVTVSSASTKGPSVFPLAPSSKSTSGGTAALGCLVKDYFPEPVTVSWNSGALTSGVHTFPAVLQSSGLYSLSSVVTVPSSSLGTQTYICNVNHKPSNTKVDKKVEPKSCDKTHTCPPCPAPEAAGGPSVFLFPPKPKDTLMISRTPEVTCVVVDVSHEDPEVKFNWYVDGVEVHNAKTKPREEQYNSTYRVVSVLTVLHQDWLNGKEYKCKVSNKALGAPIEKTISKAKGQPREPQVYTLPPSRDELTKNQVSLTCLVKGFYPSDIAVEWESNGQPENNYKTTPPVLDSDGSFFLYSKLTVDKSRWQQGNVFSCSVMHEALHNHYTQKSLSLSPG
light: QSVLTQPPSASGTPGQRVTISCSGSTSNLKRNYVYWYQQLPGTAPKLLIYRDRRRPSGVPDRFSGSKSGTSASLAISGLRSEDEADYYCAWYDRELSEWVFGGGTKLTVLGGGGSGGGGSEIVLTQSPATLSLSPGERATLSCRASKGVSTSGYSYLHWYQQKPGQAPRLLIYLASYLESGVPARFSGSGSGTDFTLTISSLEPEDFAVYYCQHSRDLPLTFGGGTKVEIKRTVAAPSVFIFPPSDEQLKSGTASVVCLLNNFYPREAKVQWKVDNALQSGNSQESVTEQDSKDSTYSLSSTLTLSKADYEKHKVYACEVTHQGLSSPVTKSFNRGEC
notes: Dual variable domain format, IgG1 LALAPG; also called bispecific antibody in DVD format (RV29); bispecific anti-PD-1 x anti-IL-15 antibody
B2: RV36 (bispecific antibody, human IgG1, kappa, L234A L235A)
heavy: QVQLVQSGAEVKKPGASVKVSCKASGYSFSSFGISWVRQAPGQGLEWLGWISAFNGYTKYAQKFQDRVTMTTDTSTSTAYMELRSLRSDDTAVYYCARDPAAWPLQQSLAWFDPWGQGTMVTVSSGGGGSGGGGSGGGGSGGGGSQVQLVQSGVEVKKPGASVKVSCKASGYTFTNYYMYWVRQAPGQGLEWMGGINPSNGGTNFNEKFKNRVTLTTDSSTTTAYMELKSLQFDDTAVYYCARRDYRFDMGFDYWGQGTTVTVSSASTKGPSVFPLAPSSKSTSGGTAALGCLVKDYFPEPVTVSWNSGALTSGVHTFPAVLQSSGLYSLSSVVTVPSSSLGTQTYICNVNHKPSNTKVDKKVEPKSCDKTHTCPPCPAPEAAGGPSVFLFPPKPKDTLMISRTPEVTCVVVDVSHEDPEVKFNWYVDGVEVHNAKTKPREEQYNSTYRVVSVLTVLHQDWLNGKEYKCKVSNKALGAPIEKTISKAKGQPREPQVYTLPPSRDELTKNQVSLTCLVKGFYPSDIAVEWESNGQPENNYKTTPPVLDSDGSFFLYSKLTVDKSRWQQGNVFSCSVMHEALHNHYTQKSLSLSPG
light: QSVLTQPPSASGTPGQRVTISCSGSTSNLKRNYVYWYQQLPGTAPKLLIYRDRRRPSGVPDRFSGSKSGTSASLAISGLRSEDEADYYCAWYDRELSEWVFGGGTKLTVLGGGGSGGGGSGGGGSGGGGSEIVLTQSPATLSLSPGERATLSCRASKGVSTSGYSYLHWYQQKPGQAPRLLIYLASYLESGVPARFSGSGSGTDFTLTISSLEPEDFAVYYCQHSRDLPLTFGGGTKVEIKRTVAAPSVFIFPPSDEQLKSGTASVVCLLNNFYPREAKVQWKVDNALQSGNSQESVTEQDSKDSTYSLSSTLTLSKADYEKHKVYACEVTHQGLSSPVTKSFNRGEC
notes: Dual variable domain format like RV29 but with a longer inter-Fv linker, IgG1 LALAPG
B3: RV26 (bispecific antibody, human IgG1, lambda, L234A L235A)
heavy 1: QVQLVQSGAEVKKPGASVKVSCKASGYSFSSFGISWVRQAPGQGLEWLGWISAFNGYTKYAQKFQDRVTMTTDTSTSTAYMELRSLRSDDTAVYYCARDPAAWPLQQSLAWFDPWGQGTMVTVSSASTKGPSVFPLAPSSKSTSGGTAALGCLVKDYFPEPVTVSWNSGALTSGVHTFPAVLQSSGLYSLSSVVTVPSSSLGTQTYICNVNHKPSNTKVDKKVEPKSCDKTHTCPPCPAPEAAGGPSVFLFPPKPKDTLMISRTPEVTCVVVDVSHEDPEVKFNWYVDGVEVHNAKTKPREEQYNSTYRVVSVLTVLHQDWLNGKEYKCKVSNKALGAPIEKTISKAKGQPREPQVYVYPPSRDELTKNQVSLTCLVKGFYPSDIAVEWESNGQPENNYKTTPPVLDSDGSFALVSKLTVDKSRWQQGNVFSCSVMHEALHNHYTQKSLSLSPGKGGGGSGGGGSGGGGSGGGGSEIVLTQSPATLSLSPGERATLSCRASKGVSTSGYSYLHWYQQKPGQAPRLLIYLASYLESGVPARFSGSGSGTDFTLTISSLEPEDFAVYYCQHSRDLPLTFGCGTKVEIKGGSGGGSGGGSGGGSGGGSGQVQLVQSGVEVKKPGASVKVSCKASGYTFTNYYMYWVRQAPGQCLEWMGGINPSNGGTNFNEKFKNRVTLTTDSSTTTAYMELKSLQFDDTAVYYCARRDYRFDMGFDYWGQGTTVTVSS
heavy 2: QVQLVQSGAEVKKPGASVKVSCKASGYSFSSFGISWVRQAPGQGLEWLGWISAFNGYTKYAQKFQDRVTMTTDTSTSTAYMELRSLRSDDTAVYYCARDPAAWPLQQSLAWFDPWGQGTMVTVSSASTKGPSVFPLAPSSKSTSGGTAALGCLVKDYFPEPVTVSWNSGALTSGVHTFPAVLQSSGLYSLSSVVTVPSSSLGTQTYICNVNHKPSNTKVDKKVEPKSCDKTHTCPPCPAPEAAGGPSVFLFPPKPKDTLMISRTPEVTCVVVDVSHEDPEVKFNWYVDGVEVHNAKTKPREEQYNSTYRVVSVLTVLHQDWLNGKEYKCKVSNKALGAPIEKTISKAKGQPREPQVYVLPPSRDELTKNQVSLLCLVKGFYPSDIAVEWESNGQPENNYLTWPPVLDSDGSFFLYSKLTVDKSRWQQGNVFSCSVMHEALHNHYTQKSLSLSPG
light: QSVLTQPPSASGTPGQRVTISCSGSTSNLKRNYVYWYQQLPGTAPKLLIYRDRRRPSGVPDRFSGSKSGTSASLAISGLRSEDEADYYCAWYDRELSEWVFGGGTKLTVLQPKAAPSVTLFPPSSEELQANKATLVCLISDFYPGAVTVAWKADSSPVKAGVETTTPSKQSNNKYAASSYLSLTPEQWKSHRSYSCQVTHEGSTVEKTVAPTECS
notes: Heterodimeric IgG1 LALAPG, two anti-IL-15 Fabs and one anti-PD1 scFv (H1H2L1L1); also called fusion of 1 scFv to a HC of a bispecific antibody in Fab-Fab format (RV26)
B4: RV15 (bispecific antibody, human IgG1, kappa, lambda, L234A L235A)
heavy 1: QVQLVQSGVEVKKPGASVKVSCKASGYTFTNYYMYWVRQAPGQGLEWMGGINPSNGGTNFNEKFKNRVTLTTDSSTTTAYMELKSLQFDDTAVYYCARRDYRFDMGFDYWGQGTTVTVSSASTKGPSVFPLAPSSKSTSGGTAALGCEVTDYFPEPVTVSWNSGALTSGVHTFPAVLESSGLYSLSSVVTVPSSSLGTQTYICNVNHKPSNTKVDKKVEPDSCDKTHTCPPCPAPEAAGGPSVFLFPPKPKDTLMISRTPEVTCVVVDVSHEDPEVKFNWYVDGVEVHNAKTKPREEQYNSTYRVVSVLTVLHQDWLNGKEYKCKVSNKALGAPIEKTISKAKGQPREPQVYVYPPSRDELTKNQVSLTCLVKGFYPSDIAVEWESNGQPENNYKTTPPVLDSDGSFALVSKLTVDKSRWQQGNVFSCSVMHEALHNHYTQKSLSLSPG
light 1: EIVLTQSPATLSLSPGERATLSCRASKGVSTSGYSYLHWYQQKPGQAPRLLIYLASYLESGVPARFSGSGSGTDFTLTISSLEPEDFAVYYCQHSRDLPLTFGGGTKVEIKRTVAAPSVFIFPPKDERLKSGTASVVCLLNNFYPREAKVQWKVDNALQSGNSQESVTEQDSKDSTYSLSSRLTLSKADYEKHKVYACEVTHQGLSSPVTKSFNRGEC
heavy 2: B3 heavy 2 with A137R, S191K
light 2: QSVLTQPPSASGTPGQRVTISCSGSTSNLKRNYVYWYQQLPGTAPKLLIYRDRRRPSGVPDRFSGSKSGTSASLAISGLRSEDEADYYCAWYDRELSEWVFGGGTKLTVLQPKAAPSVTLFPPSDEELQANTATLVCLISDFYPGAVTVAWKADSSPVKAGVETTTPSKQSNNKYAAESELSLTPEQWKSHRSYSCQVTHEGSTVEKTVAPTECS
notes: Asymmetric IgG1 LALAPG heterodimer, one anti-PD1 Fab arm and one anti-IL-15 Fab arm (H1H2L1L2); also called bispecific antibody in a Fab-Fab format (RV15)
B5: RV1 (antibody, human IgG1, lambda, V domains shown)
VH: QVQLVQSGAEVKKPGASVKVSCKASGYSFSSFGISWVRQAPGQGLEWLGWISAFNGYTKYAQKFQDRVTMTTDTSTSTAYMELRSLRSDDTAVYYCARDPAAWPLQQSLAWFDPWGQGTMVTVSS
VL: QSVLTQPPSASGTPGQRVTISCSGSTSNLKRNYVYWYQQLPGTAPKLLIYRDRRRPSGVPDRFSGSKSGTSASLAISGLRSEDEADYYCAWYDRELSEWVFGGGTKLTVLQ
notes: also called anti-IL-15 antibody (RV1); DISC0280-derived monospecific parent antibody
B6: RV31 (bispecific antibody, human IgG1, kappa, lambda, L234A L235A)
heavy: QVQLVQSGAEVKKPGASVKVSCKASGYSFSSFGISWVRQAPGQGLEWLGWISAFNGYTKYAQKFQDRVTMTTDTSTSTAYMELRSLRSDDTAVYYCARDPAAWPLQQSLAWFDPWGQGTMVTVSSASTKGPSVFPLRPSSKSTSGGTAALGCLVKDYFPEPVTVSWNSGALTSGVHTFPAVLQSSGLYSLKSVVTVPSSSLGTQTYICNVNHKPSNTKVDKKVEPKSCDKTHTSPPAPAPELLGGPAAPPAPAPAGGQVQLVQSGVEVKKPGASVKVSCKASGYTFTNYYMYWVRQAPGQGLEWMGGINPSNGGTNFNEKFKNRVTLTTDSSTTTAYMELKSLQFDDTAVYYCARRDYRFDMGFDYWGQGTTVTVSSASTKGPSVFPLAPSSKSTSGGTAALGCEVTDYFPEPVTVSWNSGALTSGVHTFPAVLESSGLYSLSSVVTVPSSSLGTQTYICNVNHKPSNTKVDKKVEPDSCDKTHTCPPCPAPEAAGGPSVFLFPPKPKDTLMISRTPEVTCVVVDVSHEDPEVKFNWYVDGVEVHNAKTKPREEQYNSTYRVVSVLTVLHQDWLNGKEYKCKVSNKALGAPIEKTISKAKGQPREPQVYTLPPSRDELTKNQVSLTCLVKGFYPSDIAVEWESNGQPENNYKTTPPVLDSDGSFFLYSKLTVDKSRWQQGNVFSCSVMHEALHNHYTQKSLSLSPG
light 1: B4 light 1
light 2: B4 light 2
notes: Dual Fab domain format (H1H1L1L1L2L2), IgG1 LALAPG; Purity 83 % main peak; O-glycosylation reported, likely in the inter-Fab linker
B7: RV32 (bispecific antibody, human IgG1, kappa, lambda, L234A L235A)
heavy: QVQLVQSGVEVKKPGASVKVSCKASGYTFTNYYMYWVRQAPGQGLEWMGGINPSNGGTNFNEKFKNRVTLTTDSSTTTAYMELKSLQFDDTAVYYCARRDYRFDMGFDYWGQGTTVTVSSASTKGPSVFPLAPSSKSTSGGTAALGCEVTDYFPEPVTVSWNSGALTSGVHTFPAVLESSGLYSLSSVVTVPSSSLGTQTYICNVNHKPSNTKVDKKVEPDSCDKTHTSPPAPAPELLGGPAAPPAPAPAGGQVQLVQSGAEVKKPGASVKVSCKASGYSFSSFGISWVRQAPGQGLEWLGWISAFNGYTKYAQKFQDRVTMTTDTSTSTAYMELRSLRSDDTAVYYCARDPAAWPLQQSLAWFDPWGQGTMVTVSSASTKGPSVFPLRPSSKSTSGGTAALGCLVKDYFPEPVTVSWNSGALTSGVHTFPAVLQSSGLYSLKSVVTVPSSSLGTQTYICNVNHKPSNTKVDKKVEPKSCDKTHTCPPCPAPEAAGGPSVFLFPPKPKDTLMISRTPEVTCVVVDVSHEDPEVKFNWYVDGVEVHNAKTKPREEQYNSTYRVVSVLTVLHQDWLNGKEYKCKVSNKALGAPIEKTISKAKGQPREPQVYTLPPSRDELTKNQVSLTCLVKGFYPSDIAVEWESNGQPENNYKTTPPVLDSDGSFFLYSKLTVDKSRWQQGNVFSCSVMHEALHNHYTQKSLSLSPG
light 1: B4 light 1
light 2: B4 light 2
notes: Dual Fab domain format (H1H1L1L1L2L2), IgG1 LALAPG; O-glycosylation reported, likely in the inter-Fab linker; also called bispecific antibody in dual Fab domain format (RV32); bispecific anti-PD-1 x anti-IL-15 antibody

target: T1, human PD-1 (human, UniProt Q15116 25-167, limits assumed); experiment: SPR, variant as analyte over immobilised PD1 (avidity possible); PD1 capture surface, RV29 as analyte (third entry of the cell; avidity possible)
T1 construct: Recombinant protein used in SPR as analyte or amine-coupled ligand; also called PD1 antigen
T1 sequence (Q15116 25-167 limits assumed): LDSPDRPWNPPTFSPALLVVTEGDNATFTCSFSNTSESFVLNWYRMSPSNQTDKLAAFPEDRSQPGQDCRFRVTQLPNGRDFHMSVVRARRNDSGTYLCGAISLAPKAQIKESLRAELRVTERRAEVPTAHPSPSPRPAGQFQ

B1 was tested, and the Kd was 2350 pM.

target: T2, human IL-15 (human, UniProt P40933 49-162); experiment: SPR, variant captured on anti-human Fc, IL-15 analyte, single-cycle kinetics, 1:1 fit
T2 construct: also called Premium grade IL-15; GMP grade human IL-15
Description: (§1) EDC: 1-ethyl-3-(3-dimethylaminopropyl) carbodiimide hydrochloride; NHS: N-Hydroxysuccinimide; SPR: surface plasmon resonance; EDTA: ethylenediaminetetraacetic acid SPR Supplies Series S Sensor Chip CM5, Biacore amine coupling kit (NHS, EDC and 1 M ethanolamine), and 10 mM sodium acetate buffers were purchased from Cytiva Life Sciences (Marlborough, MA). […] PBS running buffer with 1% Tween20 (PBST) was purchased from Teknova Inc. (Hollister, Calif.). Goat polyclonal anti-human Fc antibody was purchased from Jackson Immuno Research Laboratories Inc. (West Grove, Pa.). EDTA was purchased from Bioshop (Burlington, ON). All SPR assays were carried out using a Biacore T200 Surface Plasmon Resonance instrument (Cytiva Life Sciences, (Marlborough, MA)) with PBST running buffer (with 0.5 M EDTA stock solution added to 3.4 mM final concentration) at a temperature of 25° C. The anti-human Fc capture surface was generated using a Series S Sensor Chip CM5 using the default parameters under the Immobilization Wizard in the Biacore T200 control software which was set to target 3000 resonance units (RUs).
The first flow cell was left empty to use as a blank control. […] The captured antibody surfaces were regenerated twice by 10 mM Glycine pH1.5 for 30 seconds at 30 μL/min. Buffer injections were performed for each analyte injection to be used for referencing.

T2 sequence (P40933 49-162 limits assumed): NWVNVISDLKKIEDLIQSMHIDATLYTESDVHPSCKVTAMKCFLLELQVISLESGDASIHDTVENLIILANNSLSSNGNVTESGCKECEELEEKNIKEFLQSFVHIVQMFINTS

First: B2
Second: B3
The Kd of the first is 3.4-fold lower: 116 pM for the first, 396 pM for the second.

Going from B4 to B5, the Kd rises from 108 pM to 349 pM (3.2-fold).

Compared with B6, B7 is 1.7-fold lower in Kd: 180 pM for the first, 108 pM for the second.

In the case of B1, the Kd is reported as 114 pM.

target: T1, human PD-1; experiment: SPR, variant as analyte over immobilised PD1 (avidity possible)

B2 and B6 are within 1.5-fold of each other in Kd: 243 pM for the first, 163 pM for the second.

In the case of B7, the Kd is reported as 67.8 pM.

target: T1, human PD-1; experiment: SPR, variant captured on protein A, PD1 analyte
Description: as §1, with “The anti-human Fc capture surface was generated using a Series S Sensor Chip CM5 using the default parameters under the Immobilization Wizard in the Biacore T200 control software which was set to target 3000 resonance units (RUs).” left out
The first flow cell was left empty to use as a blank control. […] Buffer injections were performed for each analyte injection to be used for referencing.

In the case of B2, the Kd is reported as 97000 pM.

target: T1, human PD-1; experiment: SPR, variant as analyte over immobilised PD1

Compared with B3, B4 is 1.7-fold higher in Kd: 2190 pM for the first, 3620 pM for the second.

target: T2, human IL-15; experiment: SPR, variant captured on immobilised PD1, IL-15 analyte, single-cycle kinetics, 1:1 fit

Going from B2 to B6, the Kd rises from 111 pM to 717 pM (6.5-fold). The first binds more tightly here.

B7 and B1 are within 1.5-fold of each other in Kd: 352 pM for the first, 339 pM for the second.

Reference: patent US12692305 (REVERB THERAPEUTICS, dated 2026)
